# Data from patent publication US20190161551A1 (Regeneron, published 2019).
# B1: H4H9780P (antibody, human IgG4 S228P, kappa, V domains shown)
# VH: QVQLVESGGGVVQPGRSLRLSCAASGFSFSSFGMHWVRQAPGKGLEWVSVISYDGINTYYTDSVKGRFTISRDNSKNTLYLQMNGLRAEDTALYYCVQGSIGTVFEYWGQGTLVTVSS
# VL: DIQMTQSPSSLSASVGDRVTITCRASQGISNYLAWYQQKPGKVPKLLIYAASTLQSGVPSRFGGSGSGTDFTLTISSLQPEDVATYYCQKYTSAPFTFGPGTKVDIKR
# notes: Fully human anti-human TrkB agonist antibody, human IgG4 Fc; also called H4H9780P-L1
# B2: H4H9816P2 (antibody, human IgG4 S228P, kappa, V domains shown)
# VH: EVQLVESGGGLVQPGGSLTLSCAASGFNFRDYEMIWVRQTPGKGLEWISYISNSGYTIYYADSVKGRFTISRDNARNSIYLQVNSLRAEDTAVYYCSRRTTMIRGIRAYYYYGLDVWGQGTTVTVSS
# VL: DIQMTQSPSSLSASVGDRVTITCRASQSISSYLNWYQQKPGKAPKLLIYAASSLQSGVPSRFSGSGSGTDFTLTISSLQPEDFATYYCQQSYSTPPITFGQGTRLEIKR
# notes: Fully human anti-human TrkB agonist antibody, human IgG4 Fc; also called H4H9816P-L1
# B3: H1M8037C (antibody, mouse IgG1, kappa, V domains shown)
# VH: QVQLVQSGAEVKKPGASVKVSCKASGYTFTNYDIIWVRQAPGQGLEWMGYINPYNDGTKYNEKFKGRVTMTRDTSTSTVYMELSSLRSEDTAVYYCARLLKYRRFRYYAIDYWGQGTTVTVSS
# VL: DIQMTQSPSSLSASVGDRVTITCRTSENVYSNLAWYQQKPGKAPKLLIYAASNLQSGVPSRFSGSGSGTDYTFTISSLQPEDIATYYCQHFWGSPFTFGQGTKLEIKR
# notes: captured by anti-mFc in SPR; also called Comparator; comparator anti-TrkB monoclonal antibody
# B4: H4H9814P (antibody, human IgG4 S228P, kappa, V domains shown)
# VH: EVQLVESGGGLVQPGGSLKLSCTASGFTFSGSVIHWVRQASGKGLEWIGRIRNKANSYATAYGASVTGRFTISRDDSKNTAYLQMNSLKTEDTAVYYCTFPGVVGRGGFDYWGQGTLVTVSS
# VL: DIVMTQSPDSLAVSLGEGATINCMSSQSVLFSSNNKNYLAWYQQKPGQPPKLLFYWASTRESGVPDRFGGSGSGTDFSLTINSLQTEDVAVYYCLQYYSIPWTFGQGTKVEIKR
# notes: Fully human anti-human TrkB agonist antibody, human IgG4 Fc; also called H4H9814P-L1
# Assays:
# [1] = target: T1, human TrkB extracellular domain expressed with a C-terminal myc-myc-hexahistidine tag (human, UniProt Q16620 32-430); assay: SPR, mAb captured (anti-hFc), 37C
# T1 construct: also called hTrkB.mmH; hTRKB.mmH
# T1 sequence (Q16620 other isoform, or with tags, fused parts or gaps): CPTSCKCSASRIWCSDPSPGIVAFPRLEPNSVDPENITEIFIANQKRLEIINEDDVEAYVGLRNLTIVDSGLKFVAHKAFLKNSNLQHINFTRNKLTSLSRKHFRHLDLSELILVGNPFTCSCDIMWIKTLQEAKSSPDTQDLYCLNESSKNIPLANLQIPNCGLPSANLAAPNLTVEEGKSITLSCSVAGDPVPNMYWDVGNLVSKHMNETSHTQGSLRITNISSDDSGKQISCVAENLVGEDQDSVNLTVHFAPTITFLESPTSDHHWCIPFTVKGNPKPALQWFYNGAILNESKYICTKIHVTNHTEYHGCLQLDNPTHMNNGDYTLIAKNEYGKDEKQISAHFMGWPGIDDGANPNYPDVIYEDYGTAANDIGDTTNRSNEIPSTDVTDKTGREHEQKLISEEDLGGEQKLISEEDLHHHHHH
# Description: (§1) Equilibrium dissociation constants (KD values) for TrkB binding to purified anti-TrkB monoclonal antibodies were determined using a real-time surface plasmon resonance biosensor using a Biacore 4000 instrument. All binding studies were performed in 10 mM Hepes pH 7.4, 150 mM NaCl, 3 mM EDTA, and 0.05% v/v Surfactant Tween-20 (HBS-ET running buffer) at 25° C. and 37° C. […] Binding studies were performed on following TrkB reagents; human TrkB extracellular domain expressed with a C-terminal myc-myc-hexahistidine tag (hTRKB.mmH; SEQ ID NO: 76; Accession number NP_001018074.1), mouse TrkB extracellular domain expressed with a C-terminal myc-myc-hexahistidine tag (mTRKB.mmH; SEQ ID NO: 79; Accession number NP_001020245), rat TrkB extracellular domain expressed with a C-terminal myc-myc-hexahistidine tag (rTRKB.mmH; SEQ ID NO: 84; Accession number NP_036863.1), and human TrkB extracellular domain expressed with a C-terminal mouse IgG2a Fc tag (hTrkB-mFc; SEQ ID NO: 77; Accession number NP_001018074.1). […] Kinetic association (kₐ) and dissociation (kd) rate constants were determined by fitting the real-time binding sensorgrams to a 1:1 binding model with mass transport limitation using Scrubber 2.0c curve-fitting software. Binding dissociation equilibrium constants (KD) and dissociative half-lives (t½) were calculated from the kinetic rate constants as: […]
# [2] = target: T2, mouse TrkB extracellular domain expressed with a C-terminal myc-myc-hexahistidine tag (mouse, UniProt P15209 32-429); assay: SPR, mAb captured (anti-hFc), 37C
# T2 construct: also called mTrkB.mmH; mTRKB.mmH
# T2 sequence (P15209 other isoform, or with tags, fused parts or gaps): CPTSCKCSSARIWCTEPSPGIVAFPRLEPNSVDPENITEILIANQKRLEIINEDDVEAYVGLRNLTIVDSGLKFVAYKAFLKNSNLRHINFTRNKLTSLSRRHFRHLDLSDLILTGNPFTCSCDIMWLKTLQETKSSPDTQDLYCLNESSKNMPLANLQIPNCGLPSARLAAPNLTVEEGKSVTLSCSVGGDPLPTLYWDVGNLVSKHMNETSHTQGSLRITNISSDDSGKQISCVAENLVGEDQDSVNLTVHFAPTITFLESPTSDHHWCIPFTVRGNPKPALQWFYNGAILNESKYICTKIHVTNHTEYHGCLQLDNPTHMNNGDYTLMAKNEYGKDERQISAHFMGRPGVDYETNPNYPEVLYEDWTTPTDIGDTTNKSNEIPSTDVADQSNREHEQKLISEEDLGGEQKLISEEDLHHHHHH
# Description: as §1
# [3] = target: T3, rat TrkB extracellular domain expressed with a C-terminal myc-myc-hexahistidine tag (rat, UniProt Q63604 32-429); assay: SPR, mAb captured (anti-hFc), 37C
# T3 construct: also called rTrkB.mmH; rTRKB.mmH
# T3 sequence (Q63604 other isoform, or with tags, fused parts or gaps): as the sequence (P15209 other isoform, or with tags, fused parts or gaps) above, with T3M, S9T, A10T, V32I, R63K, S84G, M153T, L185I, S394T counted along it
# Description: as §1
# [4] = target: T4, human TrkB extracellular domain expressed with a C-terminal mouse IgG2a Fc tag (human); assay: SPR, mAb captured (anti-hFc), 37C
# T4 construct: also called hTrkB-mFc; hTrkB.mFc
# T4 sequence (chain, as listed by the source limits assumed): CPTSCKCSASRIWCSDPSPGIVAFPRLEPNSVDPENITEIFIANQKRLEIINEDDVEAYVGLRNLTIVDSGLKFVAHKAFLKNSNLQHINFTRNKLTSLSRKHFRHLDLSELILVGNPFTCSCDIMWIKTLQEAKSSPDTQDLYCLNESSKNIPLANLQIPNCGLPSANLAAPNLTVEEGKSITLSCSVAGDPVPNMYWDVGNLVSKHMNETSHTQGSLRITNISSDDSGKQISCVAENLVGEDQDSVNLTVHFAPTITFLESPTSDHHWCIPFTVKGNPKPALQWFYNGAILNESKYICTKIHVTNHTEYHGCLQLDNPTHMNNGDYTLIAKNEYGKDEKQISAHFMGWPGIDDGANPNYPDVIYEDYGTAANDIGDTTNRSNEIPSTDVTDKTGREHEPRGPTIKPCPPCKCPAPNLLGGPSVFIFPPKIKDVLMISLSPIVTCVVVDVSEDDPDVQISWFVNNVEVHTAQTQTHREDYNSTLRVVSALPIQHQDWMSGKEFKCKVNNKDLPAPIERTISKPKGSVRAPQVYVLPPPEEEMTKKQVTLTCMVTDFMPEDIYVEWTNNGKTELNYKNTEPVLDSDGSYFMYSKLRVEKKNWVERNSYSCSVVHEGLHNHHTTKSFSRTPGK
# Description: as §1
# [5] = target: T5, human TrkB extracellular domain (aa Cys32-His430) expressed with the Fc portion of human IgG1 at the … (human); assay: competition ELISA, 500 pM hTrkB-hFc pre-mixed with mAb, plate-coated hBDNF
# T5 construct: also called hTrkB-hFc; hTrkB.hFc
# T5 sequence (chain, as listed by the source limits assumed): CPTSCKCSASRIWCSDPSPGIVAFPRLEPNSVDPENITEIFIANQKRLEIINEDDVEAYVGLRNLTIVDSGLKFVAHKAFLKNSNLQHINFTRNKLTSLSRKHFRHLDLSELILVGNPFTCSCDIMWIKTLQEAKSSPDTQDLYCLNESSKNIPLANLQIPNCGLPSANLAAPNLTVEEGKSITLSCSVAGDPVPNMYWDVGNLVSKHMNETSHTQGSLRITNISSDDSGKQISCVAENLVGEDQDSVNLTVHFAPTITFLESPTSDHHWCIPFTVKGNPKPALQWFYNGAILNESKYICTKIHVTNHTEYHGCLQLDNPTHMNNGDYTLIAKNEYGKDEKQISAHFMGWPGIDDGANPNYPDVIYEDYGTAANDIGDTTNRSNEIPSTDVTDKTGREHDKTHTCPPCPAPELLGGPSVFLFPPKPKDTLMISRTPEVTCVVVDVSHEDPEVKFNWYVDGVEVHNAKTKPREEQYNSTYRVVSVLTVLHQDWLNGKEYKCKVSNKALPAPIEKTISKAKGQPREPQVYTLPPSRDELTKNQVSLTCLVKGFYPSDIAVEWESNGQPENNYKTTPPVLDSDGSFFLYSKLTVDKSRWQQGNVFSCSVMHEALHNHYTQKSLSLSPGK
# Description: Experiments were carried out using the following procedure. Human BDNF or NT-4 were separately coated at a concentration of 0.5 μg/mL or 2 μg/mL, respectively, in PBS on a 96-well microtiter plate overnight at 4° C. […] Blocking solution and dilution buffer contained 5% (w/v) solution of BSA in PBS for assay with BDNF coat, or 0.5% (w/v) solution of BSA in PBS for assay with NT-4 coat. On separate microtiter plates, a constant amount of 500 pM of hTrkB-hFc protein was added to serial dilutions of antibodies with final concentrations ranging from 1.7 pM to 100 nM, and solutions with no antibody present. (The constant concentration of hTrkB-hFc for antibody inhibition assays was selected from the approximate midway point within the linear portion of individual binding curves of hTrkB-hFc to plate-coated hBDNF or hNT-4). After one hour incubation at room temperature, antibody-protein complexes with 500 pM constant concentration of hTrkB-hFc protein were transferred to microtiter plates coated with hBDNF or hNT-4. After one hour incubation at room temperature, the wells were washed, and plate-bound hTrkB-hFc was detected with anti-human Fcγ fragment specific goat polyclonal antibodies conjugated with horseradish peroxidase (JacksonImmunoResearch). The plate was then developed using TMB substrate solution (BD Biosciences) according to manufacturer's recommendation and absorbance at 450 nm was measured on a Victor plate reader (PerkinElmer™).
# The ability of anti-TrkB antibodies to block TrkB binding to BDNF or NT-4 was assessed using two competition sandwich ELISAs. Human TrkB-hFc binding to hBDNF or hNT-4 coated on 96-well microtiter plates, in the presence of serially diluted antibodies or no antibody controls, were detected with HRP-conjugated anti-human Fcγ fragment specific goat polyclonal antibodies. IC₅₀ values were calculated and used as the potency indicator of antibody blocking hTrkB-hFc binding to hBDNF or hNT-4. In addition, the maximum blockade of 500 pM hTrkB-hFc with each antibody at the highest tested concentration was calculated and compared.
# [6] = target: mouse TrkB extracellular domain fused to the transmembrane and cytoplasmic domains of human TrkB, expressed … (mouse; human, UniProt Q16620 431-822, limits assumed); assay: cell-based or functional assay
# mouse TrkB extracellular domain fused to the transmembrane and cytoplasmic domains of human TrkB, expressed …, sequence (Q16620 other isoform, or with tags, fused parts or gaps limits assumed, form in doubt): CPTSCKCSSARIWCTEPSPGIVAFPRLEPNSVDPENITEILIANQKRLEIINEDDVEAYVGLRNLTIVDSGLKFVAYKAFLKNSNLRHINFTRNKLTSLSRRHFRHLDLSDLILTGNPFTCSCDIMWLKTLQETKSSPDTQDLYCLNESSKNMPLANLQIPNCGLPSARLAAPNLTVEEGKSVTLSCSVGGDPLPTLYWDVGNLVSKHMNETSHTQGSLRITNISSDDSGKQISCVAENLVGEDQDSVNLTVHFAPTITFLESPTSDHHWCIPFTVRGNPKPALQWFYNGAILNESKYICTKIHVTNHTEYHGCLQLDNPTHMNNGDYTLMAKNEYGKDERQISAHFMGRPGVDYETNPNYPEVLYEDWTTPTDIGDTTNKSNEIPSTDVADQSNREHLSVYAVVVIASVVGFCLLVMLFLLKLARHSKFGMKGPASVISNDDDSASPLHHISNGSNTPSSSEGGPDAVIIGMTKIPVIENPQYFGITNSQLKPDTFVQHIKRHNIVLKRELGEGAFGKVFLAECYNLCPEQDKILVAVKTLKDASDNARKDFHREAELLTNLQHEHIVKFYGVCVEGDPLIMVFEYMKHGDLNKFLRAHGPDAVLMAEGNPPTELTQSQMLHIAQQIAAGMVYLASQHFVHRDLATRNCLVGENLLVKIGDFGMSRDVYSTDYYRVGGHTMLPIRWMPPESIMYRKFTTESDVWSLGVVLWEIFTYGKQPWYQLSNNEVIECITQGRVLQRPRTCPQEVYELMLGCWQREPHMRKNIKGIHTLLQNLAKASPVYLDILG
# [7] = target: human TrkB expressed on HEK293/SRE-Luc/hTrkB cells (human, UniProt Q16620 32-822); assay: cell-based or functional assay
# human TrkB expressed on HEK293/SRE-Luc/hTrkB cells, sequence (Q16620 32-822): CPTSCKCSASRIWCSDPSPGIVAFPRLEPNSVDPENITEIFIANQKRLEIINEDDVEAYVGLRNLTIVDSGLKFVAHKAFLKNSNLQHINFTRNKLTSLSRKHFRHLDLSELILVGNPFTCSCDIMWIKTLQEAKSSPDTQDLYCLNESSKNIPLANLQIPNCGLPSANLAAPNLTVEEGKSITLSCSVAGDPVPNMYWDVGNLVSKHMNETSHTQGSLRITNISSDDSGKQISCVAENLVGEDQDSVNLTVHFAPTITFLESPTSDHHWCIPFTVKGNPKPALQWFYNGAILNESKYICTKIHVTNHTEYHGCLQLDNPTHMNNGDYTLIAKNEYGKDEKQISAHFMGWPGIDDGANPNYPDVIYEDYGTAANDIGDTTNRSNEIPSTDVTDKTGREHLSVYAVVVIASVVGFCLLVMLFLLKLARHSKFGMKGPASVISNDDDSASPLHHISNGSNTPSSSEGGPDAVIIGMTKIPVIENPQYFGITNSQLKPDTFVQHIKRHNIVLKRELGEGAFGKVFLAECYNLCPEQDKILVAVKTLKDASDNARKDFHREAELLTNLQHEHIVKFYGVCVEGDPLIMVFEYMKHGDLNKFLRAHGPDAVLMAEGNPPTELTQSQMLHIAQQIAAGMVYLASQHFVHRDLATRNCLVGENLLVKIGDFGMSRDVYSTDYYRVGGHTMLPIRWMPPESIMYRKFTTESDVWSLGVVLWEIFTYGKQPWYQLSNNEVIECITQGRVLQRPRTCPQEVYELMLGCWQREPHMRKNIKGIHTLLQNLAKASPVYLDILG
100 nM hTrkB.mmH Bound (RU) [1],Kd [1],koff [1],kon [1],t½ [1],100 nM mTrkBmmH Bound (RU) [2],100 nM rTrkB.mmH Bound (RU) [3],100 nM hTrkB-mFc Bound (RU) [4],Kd [4],koff [4],kon [4],t½ [4],% Blockade with 100 nM antibody [5],IC50 [5],"Activation (%), SRE-luciferase, 100 pM BDNF [6]","Activation (%), SRE-luciferase, No BDNF [6]","Activation (%), SRE-luciferase, 100 pM BDNF [7]","Activation (%), SRE-luciferase, No BDNF [7]","EC50 (M), SRE-luciferase, 100 pM BDNF [7]","EC50 (M), SRE-luciferase, No BDNF [7]",also measured,Binder
14 RU,63.8 nM,0.00364 s⁻¹,57100 M⁻¹ s⁻¹,3.2 min,1 RU,0 RU,14 RU,3.33 nM,0.000222 s⁻¹,66500 M⁻¹ s⁻¹,52 min,93%,0.15 nM,55%,0%,77%,88%,7.6e-11 M,8.2e-11 M,,B1
12 RU,70.8 nM,0.00374 s⁻¹,52800 M⁻¹ s⁻¹,3.1 min,0 RU,0 RU,14 RU,3.46 nM,0.00024 s⁻¹,69500 M⁻¹ s⁻¹,48 min,-56%,,58%,0%,78%,90%,4.5e-11 M,6.3e-11 M,binding result [3]: no binding (tested: 100 nM),B2
,,,,,,,,,,,,97%,0.17 nM,69%,85%,79%,78%,1.1e-10 M,7.6e-11 M,"EC50 (M), SRE-luciferase, 100 pM BDNF [6]: 4.2e-11 M; EC50 (M), SRE-luciferase, No BDNF [6]: 4.3e-11 M",B3
32 RU,2.28 nM,0.00468 s⁻¹,2.05e+06 M⁻¹ s⁻¹,2.5 min,0 RU,-1 RU,42 RU,0.0733 nM,0.000208 s⁻¹,2.83e+06 M⁻¹ s⁻¹,56 min,6%,,54%,0%,80%,92%,4.9e-11 M,3.5e-11 M,,B4
